Assays:
limd1_mouse Limd1 = limd1_mouse Limd1 (UniProt Q9QXD8)
ajuba_mouse Ajuba = ajuba_mouse Ajuba (UniProt Q91XC0)

Chain of limd1_mouse Limd1 (Q9QXD8 whole entry): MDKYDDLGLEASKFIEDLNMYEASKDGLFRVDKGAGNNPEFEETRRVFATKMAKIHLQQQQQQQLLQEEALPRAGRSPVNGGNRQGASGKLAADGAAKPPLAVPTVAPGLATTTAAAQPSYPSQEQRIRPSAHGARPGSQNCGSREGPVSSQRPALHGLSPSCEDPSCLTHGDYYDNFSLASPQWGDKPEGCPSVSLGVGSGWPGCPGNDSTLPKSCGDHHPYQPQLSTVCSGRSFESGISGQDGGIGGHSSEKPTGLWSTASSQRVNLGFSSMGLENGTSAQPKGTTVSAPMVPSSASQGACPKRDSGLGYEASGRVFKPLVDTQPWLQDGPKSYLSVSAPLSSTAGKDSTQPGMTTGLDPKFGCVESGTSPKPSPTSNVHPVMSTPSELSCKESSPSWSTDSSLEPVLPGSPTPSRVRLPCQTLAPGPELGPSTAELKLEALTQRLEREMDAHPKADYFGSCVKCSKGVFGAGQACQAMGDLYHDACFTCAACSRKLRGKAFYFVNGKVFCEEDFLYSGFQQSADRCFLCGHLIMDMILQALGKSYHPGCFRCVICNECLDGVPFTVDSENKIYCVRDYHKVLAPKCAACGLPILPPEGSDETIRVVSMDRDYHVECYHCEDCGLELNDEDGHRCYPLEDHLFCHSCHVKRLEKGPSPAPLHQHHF

effect of a mutation on the interaction (limd1_mouse Limd1) | effect of a mutation on the interaction (ajuba_mouse Ajuba) | Substance
disrupting interaction | disrupting interaction | Zinc finger protein Gfi-1 (Homo sapiens), Q99684 F5A
disrupting interaction | disrupting interaction | Zinc finger protein Gfi-1 (Homo sapiens), Q99684 F5A;L6A;V7A
disrupting interaction | disrupting interaction | Zinc finger protein Gfi-1 (Homo sapiens), Q99684 K10A;K11A

— IntAct's records for PubMed 17909014
